Assay [1] addresses LC3B WT (rat LC3B 1-120) (rat) (UniProt Q62625). Description: ITC; peptide in the syringe (0.5 mM) titrated into 200 µl of the Atg8 homologue in the cell at a 10 times lower concentration; MicroCal iTC200, 25 °C, stirring at 1000 rpm; single-site binding model; N fixed to 1.0 when the fitting was not convergent due to weak interaction; errors are fitting errors. In general terms: ITC needs no label: the signal is the heat of the interaction.

The target of assay [2] is GABARAP WT (human GABARAP 1-116) (human) (UniProt O95166). Described as above.
GABARAP WT (human GABARAP 1-116) (human), sequence (O95166 1-116): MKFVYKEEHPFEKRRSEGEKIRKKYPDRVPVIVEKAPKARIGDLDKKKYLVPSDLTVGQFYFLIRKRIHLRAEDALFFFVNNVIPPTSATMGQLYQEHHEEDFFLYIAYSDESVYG
In assay [3] the target is Atg8 (1-116) K26P (S. cerevisiae) (UniProt P38182). Description: ITC; MicroCal iTC200, 25 °C; peptide in the syringe (FAM134B, SEC62, RTN3 0.5 mM; Atg40^234–252 2.0 mM; Atg40^237–252 1.8 mM), Atg8-family protein in the cell at 10 times lower concentration (1.8 mM Atg8 for Atg40^237–252 D243A D247A); 20 mM HEPES pH 6.8, 150 mM NaCl; single-site model; errors are fitting errors.
Atg8 (1-116) K26P (S. cerevisiae), sequence (P38182 1-116 K26P): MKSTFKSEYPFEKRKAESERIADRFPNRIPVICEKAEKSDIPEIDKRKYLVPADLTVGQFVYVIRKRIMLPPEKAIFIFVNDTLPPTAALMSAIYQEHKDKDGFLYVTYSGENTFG

Assay [4] has as its target LC3C WT (UniProt Q9BXW4). Description: ITC; peptide in the syringe (0.5 mM) titrated into 200 µl of the Atg8 homologue in the cell at a 10 times lower concentration; MicroCal iTC200, 25 °C, stirring at 1000 rpm; single-site binding model; N fixed to 1.0 when the fitting was not convergent due to weak interaction; errors are fitting errors.
The target in assay [5] is LC3A WT (UniProt Q9H492). Described as above.
The target in assay [6] is GABARAPL1 WT (UniProt Q9H0R8). The assay is described as above.
GABARAPL1 WT, sequence (Q9H0R8 whole entry): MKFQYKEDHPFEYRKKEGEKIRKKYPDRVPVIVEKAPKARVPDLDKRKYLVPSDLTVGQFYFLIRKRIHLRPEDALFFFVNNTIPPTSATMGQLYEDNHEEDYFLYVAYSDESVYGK
Assay [7] has as its target GABARAPL2 WT (UniProt P60520). The assay is described as above.

Experimental findings from publication PMC7335187, “Super-assembly of ER-phagy receptor Atg40 induces local ER remodeling at contacts with forming autophagosomal membranes” (Nature Communications, 2020) are described below.

The Kd is the free concentration of one partner at which half of the binding sites on the other are occupied at equilibrium, for simple one-to-one binding. Lower therefore signals a tighter complex. A word on the stoichiometry N: it is a count of units in the complex or per binding partner.

LC3C WT, sequence (Q9BXW4 1-126): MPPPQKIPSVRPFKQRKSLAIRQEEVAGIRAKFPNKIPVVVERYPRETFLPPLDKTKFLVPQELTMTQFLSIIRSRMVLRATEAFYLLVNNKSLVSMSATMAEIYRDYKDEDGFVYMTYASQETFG
GABARAPL2 WT, sequence (P60520 whole entry): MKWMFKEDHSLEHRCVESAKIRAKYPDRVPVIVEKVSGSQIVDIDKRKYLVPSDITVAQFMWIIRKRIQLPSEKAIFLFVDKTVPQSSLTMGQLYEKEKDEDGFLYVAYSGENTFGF

Regarding FAM134B444-470 E456A E462A peptide, in assay [1], the Kd amounted to 8200 nM and the stoichiometry N amounted to 1.28 site.
In assay [2], FAM134B444-470 L458A peptide gave a Kd of 2060 nM and a stoichiometry N of 0.99 site.
As for “Atg40^237–252 peptide (from UniProt Q99325 237-252)”, in assay [3], the equilibrium dissociation constant (Kd) was 570 nM.
In the case of FAM134B444-470 WT peptide, the Kd in assay [4] was found to be 1110 nM; in assay [5] it was 210 nM; in assay [1] it was 620 nM; in assay [6] it was 120 nM; in assay [7], 300 nM. The stoichiometry N in assay [4] amounted to 0.74 site; in assay [5], 0.7 site; in assay [1] it was 1.08 site; in assay [6] it was 0.97 site; in assay [7], 0.89 site.
